These results are taken from patent publication US8512964.

Chain of apoER2 (Q14114 whole entry): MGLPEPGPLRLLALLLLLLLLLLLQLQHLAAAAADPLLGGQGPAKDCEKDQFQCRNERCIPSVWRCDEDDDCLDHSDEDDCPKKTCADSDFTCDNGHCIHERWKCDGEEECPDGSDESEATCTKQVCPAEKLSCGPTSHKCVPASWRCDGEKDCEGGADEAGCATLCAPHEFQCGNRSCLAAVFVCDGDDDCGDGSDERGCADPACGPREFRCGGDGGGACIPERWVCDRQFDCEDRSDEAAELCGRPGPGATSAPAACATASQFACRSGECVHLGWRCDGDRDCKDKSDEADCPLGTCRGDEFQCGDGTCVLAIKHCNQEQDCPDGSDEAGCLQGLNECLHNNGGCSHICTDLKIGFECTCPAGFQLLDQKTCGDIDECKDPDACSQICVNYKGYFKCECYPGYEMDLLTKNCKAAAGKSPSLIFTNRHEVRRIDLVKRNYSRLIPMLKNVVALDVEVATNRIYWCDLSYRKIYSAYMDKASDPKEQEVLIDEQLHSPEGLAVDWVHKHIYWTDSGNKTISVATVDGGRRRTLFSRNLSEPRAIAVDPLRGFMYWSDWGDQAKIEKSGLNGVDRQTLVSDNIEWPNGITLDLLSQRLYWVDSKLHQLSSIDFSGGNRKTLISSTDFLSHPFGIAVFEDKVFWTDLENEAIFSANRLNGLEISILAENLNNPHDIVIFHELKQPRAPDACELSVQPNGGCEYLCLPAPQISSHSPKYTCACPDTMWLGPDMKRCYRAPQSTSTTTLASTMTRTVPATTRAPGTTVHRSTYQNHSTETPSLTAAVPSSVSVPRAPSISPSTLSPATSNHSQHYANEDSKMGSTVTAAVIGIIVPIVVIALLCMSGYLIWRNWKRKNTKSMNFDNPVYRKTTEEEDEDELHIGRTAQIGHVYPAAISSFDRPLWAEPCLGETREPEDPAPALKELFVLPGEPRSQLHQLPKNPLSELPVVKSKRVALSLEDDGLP

B1: myosin light chain interacting protein (Mylip) (protein)
chain: MLCYVTRPDAVLMEVEVEAKANGEDCLNQVCRRLGIIEVDYFGLQFTGSKGESLWLNLRNRISQQMDGLAPYRLKLRVKFFVEPHLILQEQTRHIFFLHIKEALLAGHLLCSPEQAVELSALLAQTKFGDYNQNTAKYNYEELCAKELSSATLNSIVAKHKELEGTSQASAEYQVLQIVSAMENYGIEWHSVRDSEGQKLLIGVGPEGISICKDDFSPINRIAYPVVQMATQSGKNVYLTVTKESGNSIVLLFKMISTRAASGLYRAITETHAFYRCDTVTSAVMMQYSRDLKGHLASLFLNENINLGKKYVFDIKRTSKEVYDHARRALYNAGVVDLVSRNNQSPSHSPLKSSESSMNCSSCEGLSCQQTRVLQEKLRKLKEAMLCMVCCEEEINSTFCPCGHTVCCESCAAQLQSCPVCRSRVEHVQHVYLPTHTSLLNLTVI
Turning to B1, the “degradation in the cotransfection assay” value with LRP-1 was “Several other members, including LRP-1, LRP-1b and the EGFR receptor are not”; with VLDLR it was “the VLDLR and apoER2, are both capable of being degraded by Idol in our cotransfection assay”; with apoER2, “the VLDLR and apoER2, are both capable of being degraded by Idol in our cotransfection assay”; with LRP-1b, “Several other members, including LRP-1, LRP-1b and the EGFR receptor are not”; with EGFR receptor, “Several other members, including LRP-1, LRP-1b and the EGFR receptor are not”.
